Results on 167 variants are retold here after the RNAGym collection of RNA variant scans (doi:10.7554/elife.80360).

To fix the notation:
B1: HDV Ribozyme (parent)
chain: GGCCGGCAUGGUCCCAGCCUCCUCGCUGGCGCCGGCUGGGCAACAUUCCGAGGGGACCGUCCCCUCGGUAAUGGCGAAUGGGACCCA

The series covers variants of B1. The series can be described thus: self-cleavage, relative activity (ratio to wild type); higher = more cleavage; co-transcriptional.
As to C33A U60A, the self-cleavage was 0.193. As for C33G C41A, the self-cleavage is 0.185. On to C33G A78U, for which the self-cleavage was 0.0875. For the variant C33A G82C, the self-cleavage is 0.17. Under C32G C84G stands 0.0594; under C32U A78C, 0.177; under C32U A78U, 0.178. With C32U G55U, the self-cleavage is 0.935. For C32U G55C, the self-cleavage was 0.866. Under C33G C58G stands 0.185. With C32G G59U, the self-cleavage was found to be 0.0519. C32G G59A: the self-cleavage came out at 0.0489. Turning to C33A U65C, the self-cleavage is 0.158. With C33A U65G, the self-cleavage is 0.244. For C33A G74A, the self-cleavage is 0.0219. For the variant C32G C62U, the self-cleavage turned out to be 0.117. Under C32G C62A stands 0.148; under C32G C62G, 0.277. Under C32G C61U stands 0.026; under C32G C61G, 0.0604. With C32G C61A, the self-cleavage amounted to 0.121. On to C32U C84G, for which the self-cleavage was 0.399. Take C32U C84U: the self-cleavage came out at 0.763.

For the variant C32U G40U, the self-cleavage came to 0.758. Under C33A G76C stands 0.251. In the case of C33A G76A it was 0.228. Consider C33A G76U, for which the self-cleavage is 0.326. Under C32U A45G stands 0.755; under C32U A45U, 0.631.

With C32U A45C, the self-cleavage amounted to 0.291. For the variant C32U C48U, the self-cleavage is 0.69. As for C32U C64U, the self-cleavage came out at 0.831. In the case of C32G A42C, the self-cleavage was found to be 0.0678.

With C33G A77U, the self-cleavage came to 0.106. For the variant C32U U69A, the self-cleavage was 1.13. Take C32U C62U: the self-cleavage was 1.13.

On to C32U C62A, for which the self-cleavage was determined as 0.906. Under C33A G73A stands 0.147; under C33A G73U, 0.233. As to C33G A71C, the self-cleavage is 0.104. On to C33G A71G, for which the self-cleavage was 0.178.

In the case of C33A A51G, the self-cleavage turned out to be 0.289. Under C32U G68A stands 0.888; under C32U G68U, 0.776. Under C32G C57G stands 0.225; under C32G C41U, 0.119; under C32U A56C, 1.12.

On to C33G U37C, for which the self-cleavage came to 0.122.

For the variant C33G U37A, the self-cleavage came out at 0.225. In the case of C32U U72A, the self-cleavage was 0.692. In the case of C32U U72G it was 0.494; in that of C32G G53U, 0.196. On to C32G G53C, for which the self-cleavage is 0.213. In the case of C32G C33A, the self-cleavage came to 0.0615. Under C32G C33G stands 0.0906. Take C33G C49G: the self-cleavage came out at 0.0978. Consider C33G C49U, for which the self-cleavage worked out at 0.0923. In the case of C32U A43C it was 0.196. With C33G G38C, the self-cleavage worked out at 0. For the variant C32U C66A, the self-cleavage was 0.991.

For the variant C32U C66G, the self-cleavage was determined as 0.739. In the case of C32U C49U, the self-cleavage came to 0.803.

For the variant C33G A42U, the self-cleavage was determined as 0.0678.

For C33G G80C, the self-cleavage was 0. In the case of C33G A70U, the self-cleavage was found to be 0.383.

For the variant C33A A71G, the self-cleavage was found to be 0.289.

C33A A71U: the self-cleavage amounted to 0.0282. Turning to C32U A51G, the self-cleavage is 0.92. With C32U A51C, the self-cleavage amounted to 0.541. On to C33A U47G, for which the self-cleavage came to 0.378.

Turning to C33G U60G, the self-cleavage turned out to be 0.217. Regarding C33A C48A, the self-cleavage was found to be 0.314. In the case of C32G A56G, the self-cleavage turned out to be 0.0852. For C32G A56C, the self-cleavage is 0.0739. Turning to C33G A45G, the self-cleavage came to 0.447. Under C32U C36G stands 0.0923; under C32G G35A, 0.154; under C32G A78U, 0.0811. C32G A78C: the self-cleavage was 0.0665. On to C32G A78G, for which the self-cleavage was found to be 0.0536. With C33G C75A, the self-cleavage is 0.0791. Consider C33G C75U, for which the self-cleavage stood at 0.151.

With C33G C75G, the self-cleavage was 0.0426. In the case of C32G A71C, the self-cleavage amounted to 0.

As to C32G A71G, the self-cleavage is 0.0415. Regarding C32G C44U, the self-cleavage was 0.0665. Take C32G C44A: the self-cleavage was 0.0791.

Regarding C33A C64U, the self-cleavage came to 0.086. Under C33A C64A stands 0.339; under C33A C64G, 0.289; under C33G G55C, 0.158. For the variant C33G G55A, the self-cleavage came to 0.218.

In the case of C33G A56U, the self-cleavage was 0.228. On to C33G A56C, for which the self-cleavage was found to be 0.113. As to C33G A56G, the self-cleavage amounted to 0.222. Regarding C33G C86A, the self-cleavage came to 0.146.

As to C33G C86G, the self-cleavage came to 0.151.

For C33A A56G, the self-cleavage was 0.324. For C33A A56U, the self-cleavage is 0.475. On to C33A A56C, for which the self-cleavage amounted to 0.339. Regarding C33A, the self-cleavage stood at 0.29.

For the variant C33G, the self-cleavage is 0.173. Under C32G U69G stands 0.0504; under C32G U69C, 0.0639; under C32G U69A, 0.148. As for C33A U69C, the self-cleavage was 0.342. On to C33A U69G, for which the self-cleavage turned out to be 0.287. For the variant C33G G67C, the self-cleavage turned out to be 0.0978. In the case of C33G G67A it was 0.089; in that of C32G A87U, 0.135; in that of C32G A87C, 0.0545. C32G A87G: the self-cleavage was determined as 0.0665. Under C33G G59U stands 0.111.

As to C33G G59A, the self-cleavage is 0.188. Under C32U C85A stands 0.849; under C32U C85G, 0.831; under C33G C64A, 0.213. For C33G G50U, the self-cleavage turned out to be 0.131. Under C32G G54C stands 0.086; under C32G G54A, 0.0898. Regarding C33G G34U, the self-cleavage came to 0.0997.

As to C33G G34C, the self-cleavage turned out to be 0.

Turning to C33A U46A, the self-cleavage amounted to 0.128. In the case of C33A U46C it was 0.0875; in that of C32U G35A, 0.326. On to C32G U79C, for which the self-cleavage was 0.0205.

Consider C33A G52U, for which the self-cleavage turned out to be 0.161.

C33A G52A: the self-cleavage amounted to 0.229.

For C33A G52C, the self-cleavage was determined as 0.284. Consider C33A A77G, for which the self-cleavage amounted to 0.104.

On to C33A A77C, for which the self-cleavage is 0.0707. Under C33A A77U stands 0.0923; under C33A G34A, 0.166. Under C33G C44G stands 0.101; under C33A G39C, 0.0678; under C33A G39U, 0.138. For the variant C33G A51G, the self-cleavage came out at 0.111.

C33G G35U: the self-cleavage came out at 0.142. In the case of C33G G35C, the self-cleavage came to 0.0396. On to C33A C44U, for which the self-cleavage is 0.0707.

As for C32U G82C, the self-cleavage came out at 0.253. For the variant C32U G82A, the self-cleavage stood at 0.354. With C33G C85A, the self-cleavage worked out at 0.175. In the case of C33G C85U it was 0.122; in that of C33G G81A, 0.128; in that of C33G G81C, 0.151.

Consider C32G G40A, for which the self-cleavage was 0.0831.

In the case of C32G G40C, the self-cleavage worked out at 0.0755. Turning to C33G A87G, the self-cleavage came to 0.116. For the variant C33G A87C, the self-cleavage turned out to be 0.0839. As for C33G A87U, the self-cleavage was 0.151.

With C32A U60G, the self-cleavage was 0.138.

Take C32G U37A: the self-cleavage was 0.293. Consider C32G G39A, for which the self-cleavage was 0.157. As to C33A U79C, the self-cleavage came out at 0.0893. Under C32A U72A stands 0.156; under C32A U72G, 0.178. Turning to C32A U72C, the self-cleavage is 0.133. With C32G G67A, the self-cleavage is 0.16.

In the case of C32G G67U, the self-cleavage was found to be 0.0831. As to C33A G80U, the self-cleavage stood at 0.136. For C33A G80C, the self-cleavage stood at 0.16.

Consider C32A U69G, for which the self-cleavage is 0.271. Consider C32A U69A, for which the self-cleavage stood at 0.0652. With C33A C36G, the self-cleavage worked out at 0.208. With C33A C36U, the self-cleavage was found to be 0.0396. Take C32G U47C: the self-cleavage worked out at 0.0852.
